Assay results: paper PMC2195830

Molecular target: phospholipase C (PLC)-γ2 (chicken (endogenous in DT40))
Assay: co-IP

fold increase of the association in Cbl-deficient against wild-type DT40 cells: 3 fold
B1: phosphorylated B cell linker protein (BLNK), from BCR-stimulated DT40 cells (natural protein)
chain: MDKLNKLAVPAGEKFRKLQKMVHDIKKNESGIINKFKKFQNEQVALICKTGKDTWDRLKKKPPPSLPRRDYASEHADNEEEQWSDDFDSDYENPDGHSDSEMYVVPSEENPDDSYEPPPSEQEKKKIPSSFPISRGEYADNRTSHHQLPPINKPLPSTPSSALPRPKKPSLPSPAAKPKLPLKPRECSDDEDNYIVPVDNDDDNYIEPTESSTPPPAKPPVNRFMKPPAKSALPTPPKPSLASDMQEVYEVPEEEEELSPPPVTRFTKPLPATRAQNAEHSHMHSMTRESPKLDASRNILPLPRNRLHPKTDHEANNNDENHSFSNTQESKFPPGAAPSPLPRALKKTSNAVNPAKPCLPSRDTFTVNEDKPTAADRRRGSSHEFPLPPLPSGTPKSSLQKPLVLPKVPEAPSRALGTSPHSSISSISSTADQDAGVHSKAWYAATCDRKTAEDALYRSNKDGSFLIRKSSGQDSRQPYTLVVFYNRRVYNIPIRFIESTRQYALGREKCGEERFDSVAEIVENHQHTSLVLIDSQNNTKDSTKLKYIVRVS
modifications: phosphotyrosine (sites not defined in the paper)
